Laboratory results: article PMC2774616, “Cellular Assays for High-Throughput Screening for Modulators of Trk Receptor Tyrosine Kinases” (Current Chemical Genomics, 2008)

Tests used:
Format in all cases: cell-based
[1] = system: thapsigargin-induced NFAT-bla reporter activity; assay: Effect of RNAi oligos on thapsigargin-induced NFAT-bla reporter activity in TrkA-, TrkB- and TrkC-NFAT-bla CHO-K1 cells; conditions: all three cell lines, 50 nM RNAi oligo, Thapsigargin 30 nM 5 h
Experimental: Cells were plated in 96-well assay plates (Corning, catalog number 3603) at 6,000 cells/well in 100 µL growth medium (DMEM containing 10% dialyzed FBS, 0.1 mM NEAA and 25 mM HEPES), and incubated in 37°C, 5% CO2 incubator overnight. Next morning, Stealth™ RNAi (Invitrogen, catalog number 10620318) and Lipofectamine^TM RNAiMAX (Invitrogen, catalog number 13778) complexes were prepared according to the manufacturer’s protocol and added to the wells (50 nM RNAi oligos and 1µL RNAiMAX/well). RNAi oligo targeting for beta-lactamase was used as the positive control and a random-sequenced oligo with 48% GC content (Med GC) as the negative control. A set of 2 oligos for each Trk was used:
Cells were incubated with RNAi oligos at 37°C for 32 hours, followed by a medium change. Cells were incubated in Assay Medium at 37 °C for 16 hours and then stimulated with respective ligands (NGF, 0.77 nM; BDNF, 1 nM; NT-3, 0.72 nM and Thapsigargin, 30 nM) for 5 hours before beta-lactamase assay was performed as described above.

[2] = system: Thapsigargin-induced NFAT reporter activity, TrkB-NFAT-bla CHO-K1 cells; assay: Inhibition of Thapsigargin-induced NFAT reporter activity in TrkB-NFAT-bla CHO-K1 cells; conditions: TrkB cells, Thapsigargin 8 nM, 5 h; * values may not be accurate, curves did not reach saturation; read-out: IC50, TrkB, Thaps
Experimental: (§1) Cells in a sub-confluency state (or cryopreserved cells) were resuspended in Assay Medium (DMEM with GlutaMAX™ (Invitrogen, catalog number 10569) supplemented with 0.1% dialyzed FBS, 0.1 mM NEAA, 25 mM HEPES, 100 U/mL Penicillin and 100 µg/mL Streptomycin) and plated in a 384-well assay plate (Corning, Lowell, MA, catalog number 3712) at 10,000 cells (32 μL) per well. 32 μL of Assay Medium without cells were plated in Cell-free Control wells on the same plate. 4 µL 1% DMSO was added to each well to reach final DMSO concentration of 0.1% to mimic the screening situation where compounds dissolved in DMSO are added to test wells. Cells were then stimulated with 4 µL/well 10 x ligands (NGF, BDNF, NT-4 (Invitrogen, catalog number PHC7024), NT-3 or Thapsigargin (Sigma, St. Louis, MO)) over the indicated concentration range (1 pM ~ 50000 pM) for 5 hours before adding 8 µL/well 6X LiveBLAzer™-FRET B/G Substrate mixture (Invitrogen, catalog number K1096) for 2 hours. Fluorescence intensity at excitation 406 nm and emission 460 nm and 530 nm were obtained using Tecan Safire^2 fluorescence plate reader (Tecan, Durham, NC) (Table 1). After subtracting the average fluorescence intensity from the Cell-free Control wells, the 460nm/530nm emission ratio was calculated. Response Ratio is a measurement of the assay window and is calculated as the 460nm/530nm Emission Ratio of the stimulated wells divided by the 460nm/530nm Emission Ratio of the unstimulated wells. Response Ratios were plotted against test ligand concentrations in log scale and then analyzed using Prism software (GraphPad Software, Inc. San Diego, CA). Sigmoidal dose-response equation with varying slope was used to fit the data and generate EC50 values. Z’-factor values were calculated as: Z’-factor = 1 - [(3 x stdevunstim + 3 x stdevmaxstim) / (avgmaxstim – avgunstim)].
(§2) Cells were then stimulated with 4 µL of neurotrophins at 10 x EC80 concentrations (EC80 concentrations are: NGF, 0.77 nM; BDNF, 1 nM; NT-3, 0.72 nM; Thapsigargin, 8 nM) for 5 hours before beta-lactamase assay was performed as described above.

[3] = system: Thapsigargin-induced NFAT reporter activity, TrkC-NFAT-bla CHO-K1 cells; assay: Inhibition of Thapsigargin-induced NFAT reporter activity in TrkC-NFAT-bla CHO-K1 cells; conditions: TrkC cells, Thapsigargin 8 nM, 5 h; * values may not be accurate, curves did not reach saturation; read-out: IC50, TrkC, Thaps
Experimental: as §1, §2

[4] = system: Thapsigargin-induced NFAT reporter activity, TrkA-NFAT-bla CHO-K1 cells; assay: Inhibition of Thapsigargin-induced NFAT reporter activity in TrkA-NFAT-bla CHO-K1 cells; conditions: TrkA cells, Thapsigargin 8 nM, 5 h; * values may not be accurate, curves did not reach saturation; read-out: IC50, TrkA, Thaps
Experimental: as §1, §2

human TrkB = target: T1, human TrkB (Homo sapiens, UniProt Q16620); assay: Neurotrophin dose response, beta-lactamase reporter assay in TrkB-NFAT-bla CHO-K1 cells; conditions: for EC50: 5 h stimulation, 0.1% DMSO; for maximum response ratio, TrkB-NFAT-bla CHO-K1: 460nm/530nm ratio stimulated vs unstimulated
T1 construct: Full length human TRKA, TRKB and TRKC cDNAs were synthesized by Blue Heron Biotechnology; expressed in transfected cells
Excerpt: (§3) NFAT beta-lactamase reporter line NFAT-bla CHO-K1 cells (Invitrogen, Carlsbad, CA, catalog number K1078) were transfected using Lipofectamine™ LTX transfection reagent (Invitrogen, Carlsbad, CA) with pcDNA6-TRKA, pcDNA6-TRKB and pcDNA6-TRKC and selected for blasticidin-resistance. Blasticidin-resistant TrkA transfected cells were stimulated with NGF (Invitrogen, catalog number 13257-019), TrkB transfected cells with BDNF (Invitrogen, catalog number PHC7074) and TrkC transfected cells with NT-3 (Invitrogen, catalog number PHC7034) for 5 hours before neurotrophin stimulated beta-lactamase expressing cells were collected by FACS as single cells onto 96-well plates. The survived clones that responded to the respective ligand were selected and expanded. The clone with the best response to each ligand was further tested in a 384-well format for the dose response of neurotrophins and inhibitors and in a 96-well format for RNAi knock-down.
as §1

human TrkC = target: T2, human TrkC (Homo sapiens, UniProt Q16288); assay: Neurotrophin dose response, beta-lactamase reporter assay in TrkC-NFAT-bla CHO-K1 cells; conditions: for EC50: 5 h stimulation, 0.1% DMSO, * values may not be accurate, curves did not reach saturation; for response of TrkC-NFAT-bla CHO-K1 cells (in words): up to 50 nM
T2 construct: Full length human TRKA, TRKB and TRKC cDNAs were synthesized by Blue Heron Biotechnology; expressed in transfected cells
Excerpt: as §3, §1

human TrkA = target: T3, human TrkA (Homo sapiens, UniProt P04629); assay: Neurotrophin dose response, beta-lactamase reporter assay in TrkA-NFAT-bla CHO-K1 cells; conditions: for EC50: 5 h stimulation, 0.1% DMSO, * values may not be accurate, curves did not reach saturation; for response of TrkA-NFAT-bla CHO-K1 cells (in words): up to 50 nM
T3 construct: Full length human TRKA, TRKB and TRKC cDNAs were synthesized by Blue Heron Biotechnology; expressed in transfected cells
Excerpt: as §3, §1

[5] = used for stimulation in inhibitor assay

T1 sequence (Q16620 32-838 isoform Q16620-4 limits assumed): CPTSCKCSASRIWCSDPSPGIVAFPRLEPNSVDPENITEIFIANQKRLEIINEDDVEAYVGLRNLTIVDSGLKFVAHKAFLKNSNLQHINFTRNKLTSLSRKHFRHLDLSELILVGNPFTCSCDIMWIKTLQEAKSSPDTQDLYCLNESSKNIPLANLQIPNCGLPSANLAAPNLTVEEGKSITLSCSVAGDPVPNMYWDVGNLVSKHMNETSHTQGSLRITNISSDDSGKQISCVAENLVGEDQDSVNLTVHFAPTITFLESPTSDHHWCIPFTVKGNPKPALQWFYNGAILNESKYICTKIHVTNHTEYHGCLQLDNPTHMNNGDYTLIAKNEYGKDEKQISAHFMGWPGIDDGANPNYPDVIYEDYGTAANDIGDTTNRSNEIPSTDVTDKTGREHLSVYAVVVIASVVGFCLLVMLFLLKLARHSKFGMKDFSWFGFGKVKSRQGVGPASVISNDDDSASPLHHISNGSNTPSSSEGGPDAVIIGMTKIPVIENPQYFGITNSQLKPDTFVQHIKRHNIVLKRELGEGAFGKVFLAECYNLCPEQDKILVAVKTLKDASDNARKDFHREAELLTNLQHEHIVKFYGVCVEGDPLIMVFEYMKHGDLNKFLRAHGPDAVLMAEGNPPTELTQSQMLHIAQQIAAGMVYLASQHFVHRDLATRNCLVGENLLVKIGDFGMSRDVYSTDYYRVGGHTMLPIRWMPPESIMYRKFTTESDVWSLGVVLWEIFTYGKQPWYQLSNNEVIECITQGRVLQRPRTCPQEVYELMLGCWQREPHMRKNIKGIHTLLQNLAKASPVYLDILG
T2 sequence (Q16288 32-825 isoform Q16288-3 limits assumed): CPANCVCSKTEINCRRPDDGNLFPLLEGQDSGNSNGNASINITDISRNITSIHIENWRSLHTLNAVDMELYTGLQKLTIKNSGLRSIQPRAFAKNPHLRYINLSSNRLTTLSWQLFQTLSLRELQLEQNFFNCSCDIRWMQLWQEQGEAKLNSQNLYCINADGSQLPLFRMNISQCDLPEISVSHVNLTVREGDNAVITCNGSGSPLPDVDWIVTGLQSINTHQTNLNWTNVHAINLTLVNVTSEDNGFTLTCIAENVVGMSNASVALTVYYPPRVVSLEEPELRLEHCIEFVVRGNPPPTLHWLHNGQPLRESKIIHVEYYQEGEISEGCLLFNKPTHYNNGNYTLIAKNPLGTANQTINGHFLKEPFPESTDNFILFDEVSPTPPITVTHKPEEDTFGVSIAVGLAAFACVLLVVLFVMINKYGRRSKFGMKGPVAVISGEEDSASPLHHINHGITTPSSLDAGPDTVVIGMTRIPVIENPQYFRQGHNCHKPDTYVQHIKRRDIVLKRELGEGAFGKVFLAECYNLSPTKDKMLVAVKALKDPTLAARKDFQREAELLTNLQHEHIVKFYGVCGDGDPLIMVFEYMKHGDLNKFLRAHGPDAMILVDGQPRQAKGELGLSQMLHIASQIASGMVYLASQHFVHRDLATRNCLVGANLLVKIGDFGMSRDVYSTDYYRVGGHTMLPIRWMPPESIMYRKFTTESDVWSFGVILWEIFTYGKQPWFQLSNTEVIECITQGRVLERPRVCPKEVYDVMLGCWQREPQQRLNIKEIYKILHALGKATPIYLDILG
T3 sequence (P04629 33-796): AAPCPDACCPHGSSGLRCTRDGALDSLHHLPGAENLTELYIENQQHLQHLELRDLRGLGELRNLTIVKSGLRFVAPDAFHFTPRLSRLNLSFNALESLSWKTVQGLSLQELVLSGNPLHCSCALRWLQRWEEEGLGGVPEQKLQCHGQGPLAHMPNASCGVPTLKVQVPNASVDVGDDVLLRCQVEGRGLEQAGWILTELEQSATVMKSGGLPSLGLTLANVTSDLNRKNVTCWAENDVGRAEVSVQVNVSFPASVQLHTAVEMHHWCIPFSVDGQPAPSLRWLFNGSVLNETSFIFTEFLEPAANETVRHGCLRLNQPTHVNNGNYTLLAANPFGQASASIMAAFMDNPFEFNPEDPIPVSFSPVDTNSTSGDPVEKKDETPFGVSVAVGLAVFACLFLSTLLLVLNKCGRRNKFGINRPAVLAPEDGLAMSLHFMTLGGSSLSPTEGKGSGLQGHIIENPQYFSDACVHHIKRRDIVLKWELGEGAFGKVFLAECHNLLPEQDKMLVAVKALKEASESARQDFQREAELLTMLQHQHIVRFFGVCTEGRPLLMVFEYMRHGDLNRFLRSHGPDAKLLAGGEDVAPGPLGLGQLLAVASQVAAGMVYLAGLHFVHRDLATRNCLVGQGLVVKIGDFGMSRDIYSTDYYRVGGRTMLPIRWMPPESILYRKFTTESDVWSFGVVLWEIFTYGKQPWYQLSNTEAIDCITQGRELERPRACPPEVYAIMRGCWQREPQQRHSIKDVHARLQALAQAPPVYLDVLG

Molecule	EC50 (human TrkB) [nM]	EC50 (human TrkC) [nM]	response of TrkC-NFAT-bla CHO-K1 cells (in words) (human TrkC)	EC50 (human TrkA) [nM]	maximum response ratio, TrkB-NFAT-bla CHO-K1 (human TrkB)	response of TrkA-NFAT-bla CHO-K1 cells (in words) (human TrkA)	also measured
TRKC2: Stealth RNAi oligo for TrkC, CCAGACCAAUCUGAACUGGACCAAU (Stealth RNAi oligo, modification pattern not given here)							effect on thapsigargin-induced NFAT-bla reporter activity (in words) [1]: did not inhibit
Cn1cc(/C=C2\C(=O)Nc3cccnc32)c2ccccc21 [GW441756]							IC50 [2]: 8200 nM; IC50 [3]: 8970 nM; IC50 [4]: 2830 nM
NGF: nerve growth factor, neurotrophin, preferred ligand of TrkA (protein, UniProt P01139 122-241, looked up) Beta-nerve growth factor: SSTHPVFHMGEFSVCDSVSVWVGDKTTATDIKGKEVTVLAEVNINNSVFRQYFFETKCRASNPVESGCRGIDSKHWNSYCTTTHTFVKALTTDEKQAAWRFIRIDTACVCVLSRKATRRG	> 50	> 50	did not show any response	0.044			response of TrkB-NFAT-bla CHO-K1 cells (in words) (human TrkB; up to 50 nM): did not respond at all; maximum response ratio / response over baseline, TrkA-NFAT-bla CHO-K1 (human TrkA; […]nm/530nm ratio stimulated vs unstimulated): 5.5 fold; EC50 (human TrkA; listed as NGF 2.5s): 0.04 nM; EC80 concentration, TrkA cells (human TrkA; [5]): 0.77 nM
BDNF: brain-derived neurotrophic factor, neurotrophin, ligand of TrkB (protein, UniProt P23560 19-247, looked up) Neurotrophic factor BDNF …: APMKEANIRGQGGLAYPGVRTHGTLESVNGPKAGSRGLTSLADTFEHVIEELLDEDQKVRPNEENNKDADLYTSRVMLSSQVPLEPPLLFLLEEYKNYLDAANMSMRVRRHSDPARRGELSVCDSISEWVTAADKKTAVDMSGGTVTVLEKVPVSKGQLKQYFYETKCNPMGYTKEGCRGIDKRHWNSQCRTTQSYVRALTMDSKKRIGWRFIRIDTSCVCTLTIKRGR	0.39	28	only at the highest concentration (50 nM) tested	> 50	14	minimal effect	EC80 concentration, TrkB cells (human TrkB; [5]): 1 nM
NT-4: neurotrophin 4, ligand of TrkB (protein, UniProt P34130 81-210, looked up) Neurotrophin-4: GVSETAPASRRGELAVCDAVSGWVTDRRTAVDLRGREVEVLGEVPAAGGSPLRQYFFETRCKADNAEEGGPGAGGGGCRGVDRRHWVSECKAKQSYVRALTADAQGRVGWRWIRIDTACVCTLLSRTGRA	3.5	> 50	did not show any response	> 50	13	minimal effect	
